From publication PMC4740771, “Nucleotide-dependent assembly of the peroxisomal receptor export complex” (Scientific Reports, 2016)

How the values were obtained:
Conditions in all cases: both partners purified
[1] = target: T1, HisPex1p(E798Q) released from its GST fusion (S. cerevisiae, UniProt P24004 1-1043, E798Q); experiment: SEC; second gel filtration of the purified heterohexameric complexes after incubation at 37 °C
T1 construct: Pex1p of yeast with a Walker B mutation of the D2 domain; also called Pex1WB^E798Q; Pex1pWB; not shown: His6, N-terminal, kept; GST, C-terminal, cleaved
T1 sequence (looked up): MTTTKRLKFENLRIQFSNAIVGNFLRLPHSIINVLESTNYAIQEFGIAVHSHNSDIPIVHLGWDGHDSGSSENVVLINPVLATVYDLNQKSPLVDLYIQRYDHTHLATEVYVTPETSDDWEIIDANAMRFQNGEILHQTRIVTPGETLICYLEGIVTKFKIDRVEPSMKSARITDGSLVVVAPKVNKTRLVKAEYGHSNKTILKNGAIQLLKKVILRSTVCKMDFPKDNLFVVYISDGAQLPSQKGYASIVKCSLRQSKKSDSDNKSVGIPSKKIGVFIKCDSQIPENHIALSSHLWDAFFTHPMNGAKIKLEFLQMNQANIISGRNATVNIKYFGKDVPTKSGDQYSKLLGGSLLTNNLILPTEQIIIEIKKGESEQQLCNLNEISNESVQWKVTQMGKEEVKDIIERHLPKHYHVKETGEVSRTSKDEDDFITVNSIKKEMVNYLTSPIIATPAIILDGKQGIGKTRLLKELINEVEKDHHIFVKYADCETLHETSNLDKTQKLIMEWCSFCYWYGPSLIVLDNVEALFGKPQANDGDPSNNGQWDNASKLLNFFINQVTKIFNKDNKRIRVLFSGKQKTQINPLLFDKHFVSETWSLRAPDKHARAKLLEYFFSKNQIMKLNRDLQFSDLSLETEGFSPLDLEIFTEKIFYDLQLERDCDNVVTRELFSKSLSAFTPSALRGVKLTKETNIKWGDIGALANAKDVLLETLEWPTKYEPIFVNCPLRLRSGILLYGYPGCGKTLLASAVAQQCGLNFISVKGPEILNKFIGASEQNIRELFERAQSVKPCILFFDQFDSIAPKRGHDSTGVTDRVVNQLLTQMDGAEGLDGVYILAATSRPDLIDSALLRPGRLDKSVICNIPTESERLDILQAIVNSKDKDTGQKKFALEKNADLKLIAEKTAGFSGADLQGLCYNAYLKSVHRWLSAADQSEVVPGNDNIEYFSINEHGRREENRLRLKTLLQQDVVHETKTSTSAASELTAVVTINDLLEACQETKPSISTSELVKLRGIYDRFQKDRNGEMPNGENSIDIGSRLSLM

[2] = target: T2, Pex15p(1-315)His (GST removed by thrombin) (S. cerevisiae, UniProt Q08215 1-315); experiment: SEC; Pex1/6p/Pex15p complex isolated on GSH-agarose, released by thrombin (GST left on the column), Superose 6 (small-scale and preparative) in presence of ATP; anti-His immunoblot or Coomassie, signal intensities by ImageJ
T2 construct: Pex15p of S. cerevisiae, cytosolic part, residues 1 to 315; Same construct as m10 after thrombin cleavage; detected by anti-His antibodies; Printed mass 36 kDa; alone it eluted at about 100 kDa; also called Pex15pHis; source: E. coli BL21 (DE3), purified (Glutathione Agarose 4B), released from GSH-agarose by thrombin; not shown: GST, N-terminal, cleaved; His6, C-terminal, kept
T2 sequence (looked up): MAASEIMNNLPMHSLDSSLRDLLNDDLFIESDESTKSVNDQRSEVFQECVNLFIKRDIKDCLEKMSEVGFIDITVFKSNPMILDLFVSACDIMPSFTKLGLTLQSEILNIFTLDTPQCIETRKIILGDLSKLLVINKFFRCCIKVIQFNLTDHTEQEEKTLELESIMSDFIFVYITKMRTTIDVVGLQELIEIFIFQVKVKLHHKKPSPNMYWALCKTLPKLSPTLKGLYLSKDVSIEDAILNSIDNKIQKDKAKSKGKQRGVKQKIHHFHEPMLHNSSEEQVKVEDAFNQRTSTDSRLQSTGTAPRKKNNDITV

[3] = target: T3, HisPex1p released from HisPex1pGST by thrombin (S. cerevisiae, UniProt P24004 1-1043); experiment: as above
T3 construct: Pex1p, type II AAA-ATPase peroxin of yeast; The GST tag held the complex on GSH-agarose during purification and stayed on the column after thrombin cleavage; source: E. coli Tuner (DE3), co-purified with HisPex6p (NiNTA-agarose, GSH-agarose, thrombin release); not shown: His6, N-terminal, kept; GST, C-terminal, cleaved
T3 sequence (looked up): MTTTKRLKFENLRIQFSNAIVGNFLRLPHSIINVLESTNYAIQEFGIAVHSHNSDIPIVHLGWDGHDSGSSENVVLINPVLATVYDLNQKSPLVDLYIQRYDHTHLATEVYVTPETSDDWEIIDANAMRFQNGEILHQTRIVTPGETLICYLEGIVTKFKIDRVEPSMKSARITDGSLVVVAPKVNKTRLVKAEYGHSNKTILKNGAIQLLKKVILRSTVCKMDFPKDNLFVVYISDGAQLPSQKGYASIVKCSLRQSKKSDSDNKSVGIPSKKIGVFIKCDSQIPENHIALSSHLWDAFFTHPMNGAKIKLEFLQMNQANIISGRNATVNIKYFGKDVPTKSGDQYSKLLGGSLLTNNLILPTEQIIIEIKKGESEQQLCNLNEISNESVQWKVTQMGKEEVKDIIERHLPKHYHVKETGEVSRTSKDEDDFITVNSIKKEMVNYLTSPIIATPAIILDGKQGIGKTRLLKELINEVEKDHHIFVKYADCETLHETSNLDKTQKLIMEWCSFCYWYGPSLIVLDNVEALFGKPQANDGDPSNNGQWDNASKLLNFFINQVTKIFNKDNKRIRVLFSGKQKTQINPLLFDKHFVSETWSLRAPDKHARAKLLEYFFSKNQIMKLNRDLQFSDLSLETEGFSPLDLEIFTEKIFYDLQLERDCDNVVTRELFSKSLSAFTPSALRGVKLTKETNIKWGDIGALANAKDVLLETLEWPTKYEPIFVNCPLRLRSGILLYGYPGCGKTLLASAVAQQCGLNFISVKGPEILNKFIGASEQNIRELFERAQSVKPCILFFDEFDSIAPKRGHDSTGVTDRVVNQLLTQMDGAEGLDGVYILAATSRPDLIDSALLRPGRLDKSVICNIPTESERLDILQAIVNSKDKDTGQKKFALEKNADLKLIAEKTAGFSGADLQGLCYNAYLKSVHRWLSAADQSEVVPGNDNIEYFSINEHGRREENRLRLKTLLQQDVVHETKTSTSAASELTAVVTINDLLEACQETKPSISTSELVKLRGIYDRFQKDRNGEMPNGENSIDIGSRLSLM

B1: HisPex6p (natural protein, S. cerevisiae, UniProt P33760 1-1030, looked up)
chain: MKASLTFSLSGIYAPCSISRDIYLEYGDKKAECLYGTIRLPQYGPGCTPGKIVHCVLDDSLPFCSIVVPSKLFGFMPTQPTMDFCYFEPILDNVVPVLDSVTFLINEQLYSKLMDLPQEMQQIQFLHYKYNINSMETVVHSRDILTSGLCQILNCSPFPQGLVDFTETQLILVNDTEQKLSALKYANEDEEYALPKIGTNSALSIDLESLPCTISRDLLRPAPHINDDNSIYAFTDAETLLRLDVTSGSFITVSNMGCVRLVKLFVLLLPNGFKKRTIYAPPKIIASFPDCSVVTISKSNIGHTDIPIANQVFISRVGGWLQSQKCFQNIILTTLKKFFSESKRILCQNDLIPIAFDSSMADLNIAEENDESDDEDELGQYYKNDSLVWFFVTSAELDCFSKDNSHFIIDPNRTKLITTNITNRRPLPLSRSNLQRYYGFAETFYYDLHIFPYVRQLVNILETSFNCSQRGITLNASVLLHSTTNNVGKATMVRFASKYLGIHLLEIDCLSLTSNSRQLDSTSKIIGYIRAKCENVLPYASPAVIFLAHLDSILLDVNANQDPEAIKLQKSINFEMSKLLDDFTFKFPGTTFVGSVNNIDNVPSSFRSHMRFEILVPVPSEAQRLRIFQWYLSSHELNRDVQQKVPVSYMDNISFSSLSSYSAGLTPLDIKSIVETARMTATARFYQESKKCGWLPQSILITQEDLSKATSKARNEFSVSIGAPQIPNVTWDDIGGIDFVKGEILDTIDMPLKHPELFTSGMKKRSGILFYGPPGTGKTLMAKAIATNFSLNFFSVKGPELLNMYIGESEANVRRVFQKAREAKPCVIFFDEIDSVAPKRGNQGDSGGVMDRIVSQLLAELDGMSTDADGVFVIGATNRPDLLDEALLRPGRFDKLLYLGIPDTDTKQLNILEALTRKFVLDNDVKLIELAKLCPFNYTGADFYALCSDAMLNAMSRIARMVEKKVSQHNELTGENISTRRWFDKIATKEDTKVVVKMEDFLKAQEQLTPSVSRAELNHYEAVRANFEGA
notes: Pex6p, type II AAA-ATPase peroxin of yeast; also called single Pex6p; isolated Pex6p; source: E. coli Tuner (DE3), purified (NiNTA-agarose; with HisPex1pGST also GSH-agarose and size exclusion); not shown: His6, N-terminal, kept
binding result [1]: binds | stoichiometry N [2]: 1 Pex15p per Pex6p | stoichiometry N [3]: 0.9 Pex6p per Pex1p
